The target in test [1] is HLA-A*02:03. In words: IEDB peptide-MHC binding, purified MHC/direct/fluorescence; filed as Kd, often an IC50 or EC50 that approximates it; ≥ and ≤ were set here for values at or beyond the usual limits of such assays.
Test [2] addresses HLA-A*02:11. Described as above.
In test [3] the target is HLA-A*02:12. The description is as above.
The target in test [4] is HLA-A*02:16. The description is as above.
The target in test [5] is HLA-A*02:19. The description is as above.
In test [6] the target is HLA-A*03:01. Described as above.
Test [7] deals with HLA-A*24:03. Described as above.
Test [8] deals with HLA-A*29:02. The test is described as above.
For test [9], the target named is HLA-B*40:01. The description is as above. The conditions noted are these: source organism: Orthohantavirus negraense.
For test [10], the target named is HLA-A*02:01. Description: IEDB peptide-MHC binding, purified MHC/competitive/fluorescence; filed as Kd, often an IC50 or EC50 that approximates it; ≥ and ≤ were set here for values at or beyond the usual limits of such assays.
In test [11] the target is HLA-A*26:01. Described as above.
For test [12], the target named is HLA-B*15:01. Described as above.
In test [13] the target is HLA-B*15:17. The description is as above.
Test [14] concerns the target HLA-B*27:03. The test is described as above.
Test [15] has as its target HLA-B*46:01. The description is as above.
For test [16], the target named is HLA-B*51:01. Described as above.
Test [17] addresses HLA-B*57:01. The test is described as above.
Test [18] has as its target HLA-A*68:02. Description: IEDB peptide-MHC binding, purified MHC/direct/fluorescence; filed as Kd, often an IC50 or EC50 that approximates it; ≥ and ≤ were set here for values at or beyond the usual limits of such assays. Particulars: source organism: Zaire ebolavirus.
Test [19] concerns the target HLA-A*69:01. In words: IEDB peptide-MHC binding, purified MHC/competitive/fluorescence; filed as Kd, often an IC50 or EC50 that approximates it; ≥ and ≤ were set here for values at or beyond the usual limits of such assays. Particulars: source organism: Zaire ebolavirus.
Test [20] has as its target HLA-B*18:01. The test is described as above. Particulars: source organism: Zaire ebolavirus.
The target of test [21] is HLA-B*39:01. Described as above. Particulars: source organism: Zaire ebolavirus.
[22] abbreviates: source organism: Convict Creek 107 virus.
Where [23] appears, read: source organism: Orthohantavirus sinnombreense.
Setting [24] is: source organism: Zaire ebolavirus.

In the case of TEFFMSRKL, the Kd in test [1] (setting [22]), in test [2] (setting [22]), in test [3] (setting [22]), in test [4] (setting [22]), in test [5] (setting [22]) and in test [6] (setting [22]) was not below 20 µM in each case. For the same sequence, the Kd in [7] (setting [22]) was not below 20 µM; in test [8] (setting [22]), not below 20 µM; in [9], 0.0014 µM; in [10] (setting [23]), not below 20 µM; in test [11] (setting [23]) it was not below 20 µM; in test [12] (setting [23]) it was not below 20 µM. Further, the Kd in [13] (setting [23]), in [14] (setting [23]), in test [15] (setting [23]), in test [16] (setting [23]) and in [17] (setting [23]) was not below 20 µM each time.

Consider AFHQLVQVI, for which the Kd in test [1] (setting [24]), in test [2] (setting [24]), in test [3] (setting [24]), in test [4] (setting [24]), in test [5] (setting [24]) and in test [6] (setting [24]) was not below 20 µM throughout. Also, the Kd was 0.0021 µM in test [7] (source organism: Reston ebolavirus - Reston); not below 20 µM in test [8] (setting [24]); not below 20 µM in [18]; not below 20 µM in [10] (setting [24]); not below 20 µM in test [11] (setting [24]); not below 20 µM in test [19]. For the same sequence, the Kd in test [12] (setting [24]), in test [13] (setting [24]), in test [20], in test [14] (setting [24]), in test [21] and in test [15] (setting [24]) was not below 20 µM in each case. Further, the Kd in test [16] (setting [24]) and in test [17] (setting [24]) was not below 20 µM throughout.

The record behind these values is the Immune Epitope Database (IEDB).
